Experimental data as given in PMC3395618.

Biological target: HLA-Cw*0102 (human (endogenous in T2))

Row | Molecule | HLA-Cw*0102 expression on peptide-pulsed T2 cells (antibody DT9, flow cytometry) as compared to non-peptide pulsed T2 cells
1 | p24 Gag176-185 (from UniProt P04591 176-185) (peptide) | > 5 fold
2 | p24 Gag162-171 (from UniProt P04591 162-171) (peptide) | > 5 fold
3 | p24 Gag164-173 (from UniProt P04591 164-173) (peptide) | > 5 fold
4 | p24 Gag177-186 (from UniProt P04591 177-186) (peptide) | > 5 fold
5 | p24 Gag146-155 (from UniProt P04591 146-155) (peptide) | > 5 fold
6 | LKALGPAATL [p24 Gag334-343 (…)] | > 5 fold
7 | AAEWDRLHPV [p24 Gag209-218 (…)] | > 5 fold
8 | VIPMFSALSE [p24 Gag168-177 (…)] | > 5 fold
9 | SDIAGTTSTL [p24 Gag234-243 (…)] | > 5 fold
